In patent publication US20240228596A1 (VIB VZW, published 2024):

Tests used:
SARS-COV-2 RBD-SD1 = SARS-COV-2 RBD-SD1 (SARS-COV-2, UniProt P0DTC2 319-591); assay: periplasmic extract ELISA
[1] = molecular target: T1, SARS-COV-2 Wuhan WT Spike_del18 on VSV-delG pseudotyped particles (SARS-COV-2, UniProt P0DTC2 14-1255); assay: cell-based or functional assay
[2] = molecular target: T1, SARS-COV-2 Wuhan WT Spike_del18 on …; assay: cell-based or functional assay; remark: listed apart in the source
[3] = molecular target: SARS-COV-1 spike protein on VSV-delG pseudotyped particles (SARS-COV-1, UniProt P59594 14-1255); assay: cell-based or functional assay
[4] = molecular target: T2, RBD of HKU3 sarbecovirus displayed on yeast cells (HKU3 sarbecovirus, UniProt Q3LZX1 322-504); assay: flow cytometry, yeast-displayed RBD (data not shown)
[5] = molecular target: T1, SARS-COV-2 Wuhan WT Spike_del18 on …; assay: cell-based or functional assay; remark: listed apart in the source
[6] = molecular target: T2, RBD of HKU3 sarbecovirus displayed on …; assay: flow cytometry, yeast-displayed RBD
[7] = molecular target: T3, RBD of SARS-COV-1 displayed on yeast cells (SARS-COV-1, UniProt P59594 318-517); assay: flow cytometry, yeast-displayed RBD
[8] = molecular target: T3, RBD of SARS-COV-1 displayed on yeast …; assay: flow cytometry, yeast-displayed RBD (data not shown)
[9] = molecular target: RBD of Rp3 sarbecovirus displayed on yeast cells (Rp3 sarbecovirus, UniProt Q3I5J5 322-503); assay: as above

Row | Binder | binding result (SARS-COV-2 RBD-SD1) | neutralization IC50 [1] [µM] | IC50 Mean VSV-dG-spike SARS-COV-2 [2] [mg/L] | binding result [4] | also measured
1 | VHH4.2XAS58 (VHH) VHH: QVQLQESGGGLVQSGGSLRLSCAGSGFPLEAFSIGWFRQAPGKEREFLAAITFNSDATYYADSVKGRFTISRDNAKNTAYLQMNSLKPDDTAVYSCAAGGNHYNPQYYHDYDKYDHWGQGTQVTVFS | binds |  |  |  | 
2 | VHH3.42 (VHH) VHH: QVQLQESGGGLVQPGGSLRLSCAASGSAVSINDMGWYRQPPGKQRELVATITKTGSTNYADSVKGRFTISRDNAKNAVYLEMNSLKPEDTATYYCNAWLPYGMGPDYYGMELWGKGTQVTVSS |  | 0.0548 | 0.8 | binds | IC50 Mean VSV-dG-spike SARS-COV-1 [3]: 0.19 mg/L
3 | VHH3.92 (VHH) VHH: QVQLQESGGGLVQPGGSLRLSCAASGKAVSISDMGWYRQPPGKQRELVATITKTGNTNYADSAQGRFTISRDNAKSAVYLEMASLKPEDTAVYYCNAWLPYGMGPDYYGMELWGKGTQVTVSS |  | 0.0136 | 0.21 | binds | 
4 | VHH3.117 (VHH) VHH: QVQLQESGGGLVQPGGSLRLSCAASGKAVSISDMGWYRQPPGKQRELVATITKTGSTNYADSAQGRFTISRDNTKSAVYLEMKSLKPEDTAVYYCNAWLPYGMGPDYYGMELWGKGTQVTVSS |  | 0.0137 | 0.2 |  | IC50 Mean VSV-dG-spike SARS-COV-1 [3]: 0.016 mg/L; IC50 ug/ml, pseudoneutralization assay [5]: 0.539 µg/mL; binding result [6]: binds
5 | VHH3.89 (VHH) VHH: QVQLQESGGGLVQPGGSLRLSCAASGFTLDYYAIGWFREVPGKEREGLSRIDSSDGSTYYADSVKGRFTISRDNTKNIVYLQMNNLKPEDTAVYYCATDPIIQGRNWYWTGWGQGTQVTVSS |  |  |  |  | binding result [7]: binds; binding result [6]: binds
6 | VHH3.83 (VHH) VHH: QVQLQESGGGLVQPGDSLRLSCVLSGGVFTSYAMGWFRQAPGKEREFLAAITFNSDATYYADSVKGRFTISRDNAKNTAYLQMNSLKPNDTAVYSCAAGGNHYNPQYYHDYDKYDHWGQGTQVTVSS |  |  |  | binds | IC50 ug/ml, pseudoneutralization assay [5]: 0.262 µg/mL; binding result [8]: binds; binding result [9]: binds
7 | VHH4.2XAS43 (VHH) VHH: QVQLQESGGGLVQAGDSLTLSCAASGRTGSNYAMGWFRQAPGKEREFLAAITFNSDATYYADSVKGRFTISRDNAKNTAYLQMNSLKPDDTAVYSCAAGGNHYNPQYYHDYDKYDHWGQGTQVTVSS | binds |  |  |  | 
8 | VHH4.1XAS51 (VHH) VHH: QVQLQESGGGLVQAGGSLRLSCTASTPTIKNYAMGWFRQAPGKEREFLAAITFNSDATYYADSVKGRFTISRDNAKNTAYLQMNSLKPDDTAVYSCAAGGNHYNPQYYHDYDKYDYWGQGTQVTVSS | binds |  |  |  | 
9 | VHH4.2XAS31 (VHH) VHH: QVQLQESGGGFVQAGGSLRLSCATSGHRFSDYAVAWFRQTPGKEREFLAAITFNSDATYYADSVKGRFTISRDNAKNTAYLQMNSLKPDDTAVYSCAAGGNHYNPQYYHDYDKYDHWGQGTQVTVSS | binds |  |  |  | 
